Laboratory results from patent US20020103121A1.

Molecular target: GAL4 activation domain-E2F-1 hybrid protein (GAD.E2F-1) (human)
Assay: cell-based or functional assay

Question: Which results are given for “LexA-DP-1^172/173 hybrid protein (pLEX-DP-1/MT) (from UniProt Q08639 1-410)”?
Answer: activity in the yeast two-hybrid assay relative to wild-type DP-1 (% reduction relative to wild-type DP-1): 50; response of the E2F binding site reporter in yeast: 50 % reduction
